{
  "source": "paper PMC4234381",
  "about": "“Evolution of Acyl-Substrate Recognition by a Family of Acyl-Homoserine Lactone Synthases” (PLoS ONE, 2014)",
  "key": {"[1]": {"biological_target": "BjaI (Bradyrhizobium diazoefficiens, UniProt Q89VI2)", "assay": "DCPIP microplate assay"}, "[2]": {"biological_target": "Sfp (Bacillus subtilis, UniProt P39135)", "sequence (P39135 whole entry)": "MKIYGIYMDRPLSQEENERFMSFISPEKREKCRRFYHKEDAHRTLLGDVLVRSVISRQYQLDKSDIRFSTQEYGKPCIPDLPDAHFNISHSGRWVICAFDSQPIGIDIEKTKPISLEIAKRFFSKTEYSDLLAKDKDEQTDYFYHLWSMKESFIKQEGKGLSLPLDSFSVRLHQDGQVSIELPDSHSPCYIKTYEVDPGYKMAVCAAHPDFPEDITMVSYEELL", "assay": "enzymatic transfer of octyl-phosphopantetheine to apo-ACP, mass spectrum of product", "type": "biochemical", "conditions": "co-substrate E. coli apo-AcpP; preparative synthesis, 20:1 acyl-CoA to ACP"}, "[3]": {"substrate": "CC(C)CC(=O)SCCNC(=O)CCNC(=O)[C@H](O)C(C)(C)COP(=O)(O)OP(=O)(O)OC[C@H]1O[C@@H](n2cnc3c(N)ncnc32)[C@H](O)[C@@H]1OP(=O)(O)O", "assay": "purified protein", "conditions": "500 µM SAM, 1 µM BjaI, HEPES, final pH 7.3"}, "[4]": {"substrate": "C[S+](CC[C@H](N)C(=O)O)C[C@H]1O[C@@H](n2cnc3c(N)ncnc32)[C@H](O)[C@@H]1O", "assay": "purified protein", "conditions": "250 µM isovaleryl-CoA, HEPES, final pH 7.3"}},
  "data": [
    {"molecule": "CC(C)CCSCCNC(=O)CCNC(=O)[C@H](O)C(C)(C)COP(=O)(O)OP(=O)(O)OC[C@H]1O[C@@H](n2cnc3c(N)ncnc32)[C@H](O)[C@@H]1OP(=O)(O)O", "note": "[isopentyl-CoA]", "values": [
      {"measurement": "Ki", "setting": "[1]", "result": "21 ± 1", "unit": "µM"}
    ]},
    {"molecule": "CCCCCCCCSCCNC(=O)CCNC(=O)[C@H](O)C(C)(C)COP(=O)(O)OP(=O)(O)OC[C@H]1O[C@@H](n2cnc3c(N)ncnc32)[C@H](O)[C@@H]1OP(=O)(O)O", "note": "[octyl-CoA sulfide]", "values": [
      {"measurement": "enzymatic transfer of octyl-phosphopantetheine to apo-ACP, mass spectrum of prod", "setting": "[2]", "result": "enzymatic transfer of the alkyl-PPant to apo-ACP using Bacillus subtilis Sfp PPant transferase"}
    ]},
    {"molecule": "BjaI (Bradyrhizobium diazoefficiens USDA 110) (protein) MIHAISAVNRHLYEDVLEQHFRLRHDIFVEERHWETLRRPDGREVDSYDDEDTVYLLALEGRRVVGGHRLYPTTKPSMMSEVFPHLAAVRGCPSDPLIWEWSRYFVVRDRRDGALNLQLMAAVQEFCLDQGIAQVSAIMETWWLPRFHEAGFVVTPLGLPALVENAWTMAATVDIRRQTLDVLHDRIGMPSIVQQDGPRLDAVARANLCGLAAAQRKSA", "values": [
      {"measurement": "Km", "setting": "[3]", "result": "7.0 ± 0.5", "unit": "µM"},
      {"measurement": "kcat", "setting": "[3]", "result": "0.021 ± 0.03", "unit": "s⁻¹"},
      {"measurement": "kcat/Km", "setting": "[3]", "result": 3000, "unit": "M⁻¹ s⁻¹"},
      {"measurement": "Km", "setting": "[4]", "result": "39 ± 4", "unit": "µM"}
    ]}
  ]
}
